Experiments:
[1] = nuclear/cytoplasmic fractionation blot and immunofluorescence; details: glycan lost; control: control cells (sh-CTRL)
[2] = western blot, PANC1 and PaTU8988; details: glycan lost; control: sh-CTRL
[3] = western blot; details: glycan lost; control: untreated
[4] = cycloheximide chase, western blot; details: glycan lost; control: without BADGP

B1: ZEB1: OGT knockdown (protein)
parent chain: MKVTNYNTVVETNSDSDDEDKLHIVEEESVTDAADCEGVPEDDLPTDQTVLPGRSSEREGNAKNCWEDDTGKEGQEILGPEAQADEAGCTVKDDECESDAENEQNHDPNVEEFLQQQDTAVIFPEAPEEDQRQGTPEASGHDENGTPDAFSQLLTCPYCDRGYKRFTSLKEHIKYRHEKNEDNFSCSLCSYTFAYRTQLERHMTSHKSGRDQRHVTQSGCNRKFKCTECGKAFKYKHHLKEHLRIHSGEKPYECPNCKKRFSHSGSYSSHISSKKCISLIPVNGRPRTGLKTSQCSSPSLSASPGSPTRPQIRQKIENKPLQEQLSVNQIKTEPVDYEFKPIVVASGINCSTPLQNGVFTGGGPLQATSSPQGMVQAVVLPTVGLVSPISINLSDIQNVLKVAVDGNVIRQVLENNQANLASKEQETINASPIQQGGHSVISAISLPLVDQDGTTKIIINYSLEQPSQLQVVPQNLKKENPVATNSCKSEKLPEDLTVKSEKDKSFEGGVNDSTCLLCDDCPGDINALPELKHYDLKQPTQPPPLPAAEAEKPESSVSSATGDGNLSPSQPPLKNLLSLLKAYYALNAQPSAEELSKIADSVNLPLDVVKKWFEKMQAGQISVQSSEPSSPEPGKVNIPAKNNDQPQSANANEPQDSTVNLQSPLKMTNSPVLPVGSTTNGSRSSTPSPSPLNLSSSRNTQGYLYTAEGAQEEPQVEPLDLSLPKQQGELLERSTITSVYQNSVYSVQEEPLNLSCAKKEPQKDSCVTDSEPVVNVIPPSANPINIAIPTVTAQLPTIVAIADQNSVPCLRALAANKQTILIPQVAYTYSTTVSPAVQEPPLKVIQPNGNQDERQDTSSEGVSNVEDQNDSDSTPPKKKMRKTENGMYACDLCDKIFQKSSSLLRHKYEHTGKRPHECGICKKAFKHKHHLIEHMRLHSGEKPYQCDKCGKRFSHSGSYSQHMNHRYSYCKREAEERDSTEQEEAGPEILSNEHVGARASPSQGDSDERESLTREEDEDSEKEEEEEDKEMEELQEEKECEKPQGDEEEEEEEEEVEEEEVEEAENEGEEAKTEGLMKDDRAESQASSLGQKVGESSEQVSEEKTNEA
- localisation_or_trafficking [1]: decreases

B2: ZEB1: sh-OGT (protein)
parent chain: B1 parent chain
- expression_or_secretion [2]: decreases

B3: ZEB1: BADGP (protein)
parent chain: B1 parent chain
- expression_or_secretion [3]: decreases
- degradation_or_half_life [4]: decreases

From publication PMC9274488
